Experimental data taken from patent US20240368295A1 (SUTRO BIOPHARMA, published 2024).

How the values were obtained:
[1] = target: T1, BCMA on BCMA-positive NCI-H929, ARP-1 and U266B1 cells (human, UniProt Q02223 1-184); experiment: cell-based or functional assay
T1 sequence: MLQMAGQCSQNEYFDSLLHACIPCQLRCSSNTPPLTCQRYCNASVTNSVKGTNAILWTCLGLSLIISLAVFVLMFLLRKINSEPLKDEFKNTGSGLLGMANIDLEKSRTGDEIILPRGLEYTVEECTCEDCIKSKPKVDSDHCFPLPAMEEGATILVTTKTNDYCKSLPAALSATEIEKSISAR

[2] = target: cynomolgus BCMA on 293T-cynoBCMA cells (cynomolgus, UniProt Q02223 1-184 (human entry)); experiment: FACS, 293T-cynoBCMA cells
Chain of cynomolgus BCMA on 293T-cynoBCMA cells (Q02223 other isoform, or with tags, fused parts or gaps): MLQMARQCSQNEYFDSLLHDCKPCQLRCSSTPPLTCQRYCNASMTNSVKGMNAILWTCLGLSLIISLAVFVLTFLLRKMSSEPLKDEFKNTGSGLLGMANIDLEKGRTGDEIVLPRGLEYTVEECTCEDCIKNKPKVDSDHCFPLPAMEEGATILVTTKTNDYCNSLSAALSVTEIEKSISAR
Protocol: (§1) Variants for which sufficient protein was purified in secondary screening were tested in a fluorescence-activated cell sorting (FACS) cell-binding assay. […] 6-12 point dilutions of anti-BCMA variants starting from concentrations of about 100-200 nM antibody were dispensed into each well using a BioMekFX (Beckman Coulter). Cells were then incubated on ice for 1 hr, washed with FACS buffer and incubated for 1 hr on ice with […] FACS buffer containing […] Alexa647-conjugated Goat Anti-Human IgG dispensed using BioMekFX (Beckman Coulter). Cells were then washed 2× with FACS buffer and fixed for 10 minutes in […] PBS with 2% PFA prior to fluorescence detection. Samples were acquired using a Beckton Dickinson LSRII FACS. Geometric Mean Fluorescence Intensity of BCMA antibody binding was analyzed using FlowJo® software (Trec Star, Inc.).

[3] = target: T1, BCMA on BCMA-positive NCI-H929, ARP-1 …; experiment: FACS, NCI-H929 cells
Protocol: as §1

B1: SRP2265-F02 (antibody, IgG1, V domains shown)
VH: EVQLVESGGGLVQPGGSLRLSCAASGFNISAPGIHWVRQAPGKGLEWVGFINPAGGYTDYADSVKGRFTISADTSKNTAYLQMNSLRAEDTAVYYCARDYIRQYWTYVLDYWGQGTLVTVSS
VL: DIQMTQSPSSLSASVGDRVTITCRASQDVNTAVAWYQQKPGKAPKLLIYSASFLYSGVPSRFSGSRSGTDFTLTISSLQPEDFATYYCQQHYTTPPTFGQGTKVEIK
notes: IgG1 with trastuzumab light chain, His/FLAG-tagged, cell-free expressed; also called Antibody 4
**Q.** For B1, which “ARP-1, SC225-conjugated 2° antibody cell killing, EC50” value [1] is on record?
**A.** The value was 1.6 nM.

**Q.** And the “ARP-1, SC225-conjugated 2° antibody cell killing, Span” value [1]?
**A.** The value was 62%.

**Q.** And the “U266B1, SC225-conjugated 2° antibody cell killing, EC50” value [1]?
**A.** The value was 1 nM.

**Q.** And the “U266B1, SC225-conjugated 2° antibody cell killing, Span” value [1]?
**A.** The value was 62%.

**Q.** And the “Bmax (MFI)” value [2]?
**A.** Its value is 21800 MFI.

**Q.** And the Kd [2]?
**A.** Its Kd is 5 nM.

**Q.** What about the “Bmax (MFI)” value [3] of the same binder?
**A.** Its value is 12200 MFI.

**Q.** And the Kd [3]?
**A.** The Kd was 4.5 nM.

B2: SRP2265-F03 (antibody, IgG1, V domains shown)
VH: EVQLVESGGGLVQPGGSLRLSCAASGFNIRGPGIHWVRQAPGKGLEWVGFISPAAGYTDYADSVKGRFTISADTSKNTAYLQMNSLRAEDTAVYYCARDFVQSYWTYVLDYWGQGTLVTVSS
VL: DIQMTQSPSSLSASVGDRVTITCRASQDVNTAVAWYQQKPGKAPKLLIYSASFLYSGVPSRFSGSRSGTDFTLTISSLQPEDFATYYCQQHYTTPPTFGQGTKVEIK
notes: IgG1 with trastuzumab light chain, His/FLAG-tagged, cell-free expressed; also called Antibody 7
**Q.** Which results are given for B2?
**A.** ARP-1, SC225-conjugated 2° antibody cell killing, EC50 [1]: 2.3 nM; ARP-1, SC225-conjugated 2° antibody cell killing, Span [1]: 57%; U266B1, SC225-conjugated 2° antibody cell killing, EC50 [1]: 0.8 nM; U266B1, SC225-conjugated 2° antibody cell killing, Span [1]: 56%; Bmax (MFI) [3]: 12500 MFI; Kd [3]: 5.3 nM

B3: SRP2265-A06 (antibody, IgG1, V domains shown)
VH: EVQLVESGGGLVQPGGSLRLSCAASGFNIYRSGIHWVRQAPGKGLEWVGFINPAGGYTDYADSVKGRFTISADTSKNTAYLQMNSLRAEDTAVYYCARDYVPQYWTYVLDYWGQGTLVTVSS
VL: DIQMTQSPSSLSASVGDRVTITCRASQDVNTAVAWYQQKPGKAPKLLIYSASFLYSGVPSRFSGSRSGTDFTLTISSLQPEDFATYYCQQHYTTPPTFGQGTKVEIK
notes: IgG1 with trastuzumab light chain, His/FLAG-tagged, cell-free expressed; also called Antibody 13
**Q.** How did the “ARP-1, SC225-conjugated 2° antibody cell killing, EC50” value [1] turn out when B3 was run?
**A.** Its value is 2.9 nM.

**Q.** And the “ARP-1, SC225-conjugated 2° antibody cell killing, Span” value [1]?
**A.** Its value is 68%.

**Q.** And the “U266B1, SC225-conjugated 2° antibody cell killing, EC50” value [1]?
**A.** Its value is 1.3 nM.

**Q.** And the “U266B1, SC225-conjugated 2° antibody cell killing, Span” value [1]?
**A.** The value was 59%.

**Q.** What about the “Bmax (MFI)” value [2] of the same binder?
**A.** The value was 22100 MFI.

**Q.** And the “Bmax (MFI)” value [3]?
**A.** Its value is 11100 MFI.

B4: SRP2265-E02 (antibody, IgG1, V domains shown)
VH: EVQLVESGGGLVQPGGSLRLSCAASGFNIYVSGIHWVRQAPGKGLEWVGFINPAGGYTDYADSVKGRFTISADTSKNTAYLQTNSLRAEDTAVYYCARDYVYQYWTYVLDYWGQGTLVTVSS
VL: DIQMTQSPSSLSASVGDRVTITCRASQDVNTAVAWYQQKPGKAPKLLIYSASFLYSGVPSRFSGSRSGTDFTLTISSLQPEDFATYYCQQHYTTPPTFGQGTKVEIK
notes: IgG1 with trastuzumab light chain, His/FLAG-tagged, cell-free expressed; also called Antibody 8
**Q.** With B4 as the binder, how does the “ARP-1, SC225-conjugated 2° antibody cell killing, EC50” value [1] read?
**A.** The value was 1.5 nM.

**Q.** What about the “ARP-1, SC225-conjugated 2° antibody cell killing, Span” value [1] of the same binder?
**A.** Its value is 55%.

**Q.** What about the “U266B1, SC225-conjugated 2° antibody cell killing, EC50” value [1] of the same binder?
**A.** The value was 0.8 nM.

**Q.** And the “U266B1, SC225-conjugated 2° antibody cell killing, Span” value [1]?
**A.** The value was 53%.

**Q.** And the “Bmax (MFI)” value [2]?
**A.** The value was 26700 MFI.

**Q.** What about the Kd [2] of the same binder?
**A.** The Kd was 5.1 nM.

**Q.** And the “Bmax (MFI)” value [3]?
**A.** The value was 11600 MFI.

B5: SRP2265-F06 (antibody, IgG1, V domains shown)
VH: EVQLVESGGGLVQPGGSLRLSCAASGFNISYPGIHWVRQAPGKGLEWVGFINPAGGYTDYADSVKGRFTISADTSKNTAYLQMNSLRAEDTAVYYCARDYILQYWTYVLDYWGQGTLVTVSS
VL: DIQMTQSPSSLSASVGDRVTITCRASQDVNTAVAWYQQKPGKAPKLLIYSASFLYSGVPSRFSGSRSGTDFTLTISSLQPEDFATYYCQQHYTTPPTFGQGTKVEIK
notes: IgG1 with trastuzumab light chain, His/FLAG-tagged, cell-free expressed; also called Antibody 2
**Q.** For B5, which “ARP-1, SC225-conjugated 2° antibody cell killing, EC50” value [1] is on record?
**A.** The value was 1.2 nM.

**Q.** What about the “ARP-1, SC225-conjugated 2° antibody cell killing, Span” value [1] of the same binder?
**A.** Its value is 62%.

**Q.** What about the “U266B1, SC225-conjugated 2° antibody cell killing, EC50” value [1] of the same binder?
**A.** Its value is 0.9 nM.

**Q.** And the “U266B1, SC225-conjugated 2° antibody cell killing, Span” value [1]?
**A.** The value was 59%.

**Q.** And the “Bmax (MFI)” value [2]?
**A.** Its value is 25800 MFI.

**Q.** And the “Bmax (MFI)” value [3]?
**A.** The value was 11400 MFI.

B6: SRP2265-D05 (antibody, IgG1, V domains shown)
VH: EVQLVESGGGLVQPGGSLRLSCAASGFNISGPGIHWVRQAPGKGLEWVGFINPAAGYTDYADSVKGRFAISADTSKNTAYLQMNSLRAEDTAVYYCARDFVYAYWTYVLDYWGQGTLVTVSS
VL: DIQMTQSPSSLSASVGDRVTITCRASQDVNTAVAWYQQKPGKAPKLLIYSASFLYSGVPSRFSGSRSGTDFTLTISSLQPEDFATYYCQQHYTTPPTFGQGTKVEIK
notes: IgG1 with trastuzumab light chain, His/FLAG-tagged, cell-free expressed; also called Antibody 10
**Q.** What does the source list for B6?
**A.** ARP-1, SC225-conjugated 2° antibody cell killing, EC50 [1]: 1 nM; ARP-1, SC225-conjugated 2° antibody cell killing, Span [1]: 50%; U266B1, SC225-conjugated 2° antibody cell killing, EC50 [1]: 0.8 nM; U266B1, SC225-conjugated 2° antibody cell killing, Span [1]: 53%; Bmax (MFI) [2]: 21300 MFI; Kd [2]: 3.8 nM; Bmax (MFI) [3]: 10900 MFI; Kd [3]: 4 nM

B7: SRP2265-F05 (antibody, IgG1, V domains shown)
VH: EVQLVESGGGLVQPGGSLRLSCAASGFNIIAPGIHWVRQAPGKGLEWVGFINPAGGYTDYADSVKGRFTISADTSKNTAYLQMNSLRAEDTAVYYCARDYVNAYWTYVLDYWGQGTLVTVSS
VL: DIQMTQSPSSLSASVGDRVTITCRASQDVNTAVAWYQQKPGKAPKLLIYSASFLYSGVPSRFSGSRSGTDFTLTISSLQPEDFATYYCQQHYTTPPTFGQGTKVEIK
notes: IgG1 with trastuzumab light chain, His/FLAG-tagged, cell-free expressed; also called Antibody 3
**Q.** What does the source list for B7?
**A.** ARP-1, SC225-conjugated 2° antibody cell killing, EC50 [1]: 1.8 nM; ARP-1, SC225-conjugated 2° antibody cell killing, Span [1]: 52%; U266B1, SC225-conjugated 2° antibody cell killing, EC50 [1]: 1.2 nM; U266B1, SC225-conjugated 2° antibody cell killing, Span [1]: 61%; Bmax (MFI) [2]: 18500 MFI; Kd [2]: 3 nM; Bmax (MFI) [3]: 12700 MFI; Kd [3]: 10.3 nM

B8: SRP2265-A09 (antibody, IgG1, V domains shown)
VH: EVQLVESGGGLVQPGGSLRLSCAASGFNIIGPGIHWVRQAPGKGLEWVGFINPAGGYTDYADSVKGRFTISADTSKNTAYLQMNSLRAEDTAVYYCARDYVYNYWTYVLDYWGQGTLVTVSS
VL: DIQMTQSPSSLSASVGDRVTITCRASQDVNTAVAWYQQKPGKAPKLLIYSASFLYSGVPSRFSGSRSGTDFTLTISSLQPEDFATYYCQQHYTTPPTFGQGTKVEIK
notes: IgG1 with trastuzumab light chain, His/FLAG-tagged, cell-free expressed; also called Antibody 6
**Q.** Which results are given for B8?
**A.** ARP-1, SC225-conjugated 2° antibody cell killing, EC50 [1]: 1.9 nM; ARP-1, SC225-conjugated 2° antibody cell killing, Span [1]: 55%; U266B1, SC225-conjugated 2° antibody cell killing, EC50 [1]: 0.9 nM; U266B1, SC225-conjugated 2° antibody cell killing, Span [1]: 58%; Bmax (MFI) [2]: 23800 MFI; Kd [2]: 6.2 nM; Bmax (MFI) [3]: 11700 MFI; Kd [3]: 5.2 nM
